Measurements as given in patent US20190016816A1 (APTEVO RESEARCH AND DEVELOPMENT, published 2019).

T1: human 5T4 on cells (human, UniProt Q13641 32-420)
T1 sequence: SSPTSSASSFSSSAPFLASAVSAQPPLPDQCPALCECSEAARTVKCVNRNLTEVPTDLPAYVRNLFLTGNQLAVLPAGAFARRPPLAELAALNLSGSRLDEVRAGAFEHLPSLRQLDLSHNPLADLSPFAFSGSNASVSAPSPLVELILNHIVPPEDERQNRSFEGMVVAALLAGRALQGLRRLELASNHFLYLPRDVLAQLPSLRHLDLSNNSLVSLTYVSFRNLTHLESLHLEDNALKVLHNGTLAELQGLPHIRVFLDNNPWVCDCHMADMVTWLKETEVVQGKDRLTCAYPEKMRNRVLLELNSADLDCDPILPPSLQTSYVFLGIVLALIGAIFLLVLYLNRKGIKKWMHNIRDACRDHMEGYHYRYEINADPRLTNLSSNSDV

B1: ALG.APV-210 (bispecific antibody)
chain: EVQLLESGGGLVQPGGSLRLSCAASGFTFSHGSMYWVRQAPGKGLEWVSSISSGSGSTYYADSVKGRFTISHDNSKNTLYLQMNSLRAEDTAVYYCARSSYYGSYYSIDYWGQGTLVTVSSGGGGSGGGGSGGGGSGGGGSDIQMTQSPSSLSASVGDRVTITCRASQSISSYLNWYQQKPGKAPKLLIYAASSLQSGVPSRFSGSGSGTDFTLTISSLQPEDFATYYCQQYYDNLPTFGQGTKLEIKEPKSSDKTHTCPPCPAPEAAGAPSVFLFPPKPKDTLMISRTPEVTCVVVDVSHEDPEVKFNWYVDGVEVHNAKTKPREEQYNSTYRVVSVLTVLHQDWLNGKEYKCAVSNKALPAPIEKTISKAKGQPREPQVYTLPPSRDELTKNQVSLTCLVKGFYPSDIAVEWESNGQPENNYKTTPPVLDSDGSFFLYSKLTVDKSRWQQGNVFSCSVMHEALHNHYTQKSLSLSPGSGGGGSGGGGSGGGGSPSEVQLLESGGGLVQPGGSLRLSCAASGFTFSSYAMSWVRQAPGKCLEWVSAISGSGGSTYYADSVKGRFTISRDNSKNTLYLQMNSLRAEDTAVYYCARYYGGYYSAWMDYWGQGTLVTVSSGGGGSGGGGSGGGGSGGGGSDIQMTQSPSSLSASVGDRVTITCRASQSISSFLNWYQQKPGKAPKLLIYAASSLQSGVPSRFSGSGSGTDFTLTISSLQPEDSATYYCQQTYGYLHTFGCGTKLEIKR
notes: Optimized ADAPTIR scFv-Fc-scFv homodimer with stabilizing disulfide in the 1210 scFv; also called 5T4-CD137 bispecific antibody
B2: biotinylated ALG.APV-210 (bispecific antibody)
chain: B1 chain
notes: also called ALG.APV-210 (biotinylated for FACS detection)

Assays:
[1] = molecular target: T1, human 5T4 on cells; assay: cell-based or functional assay
[2] = molecular target: T1, human 5T4 on cells; assay: flow cytometry, JEG cells, streptavidin-PE, normalized MFI of 2 pooled experiments
Protocol: (§1) Prior to the FACS staining, all cell lines were characterized for their 5T4 expression levels using a receptor density kit (Quantum Simply Cellular, anti-human IgG, Bangs Laboratories, Inc). Adherent cell lines were cultured according to their supplier's instructions and were harvested from their cell culture flasks using Trypsin/EDTA, counted in R10 medium in a Burker chamber, and diluted in FACS buffer (PBS+0.5% BSA, 0.05% NaN₃) to a concentration of 4×10⁶ cells/mL. 50 μL (0.20×10⁶) of cell solution was added to a 96-well FACS staining plate (Falcon #351190). Cells were incubated for 20 min in 4° C. with 50 μL of the biotinylated ALG.APV-210 (2× final concentration). The antibodies were added in a serial dilution starting at 20 μg/mL titrating down in a 12 step ½ dilution down to 0.010 μg/mL. Following 2× washing with FACS buffer, cells were incubated for 30 min in 4° C. with 100 μL of a secondary antibody (streptavidin-PE, BD #554061, diluted 1/500). […] Cells were analysed for ALG.APV-210 binding using flow cytometry (FACSVerse) by gating on single cells. MFI values (secondary antibody only subtracted) from 1 out of 2 independent experiments, as well as normalized data and EC₅₀-values of pooled data from 2 experiments were determined and plotted using GraphPad Prism 7, non-linear regression log (agonist) vs. normalized response—variable slope.

[3] = molecular target: T2, cynomolgus CD137 on cells (cynomolgus macaque, UniProt A9YYE7 24-254); assay: flow cytometry, MFI of all CD3+CD8+ cells gated from CD3-stimulated cynomolgus PBMC
T2 construct: whole, on cells; also called CHO-K1/cynomolgus CD137 cell line; cynomolgus monkey CD137 on CD3-stimulated primary CD8 T cells
T2 sequence (A9YYE7 entry or part of it): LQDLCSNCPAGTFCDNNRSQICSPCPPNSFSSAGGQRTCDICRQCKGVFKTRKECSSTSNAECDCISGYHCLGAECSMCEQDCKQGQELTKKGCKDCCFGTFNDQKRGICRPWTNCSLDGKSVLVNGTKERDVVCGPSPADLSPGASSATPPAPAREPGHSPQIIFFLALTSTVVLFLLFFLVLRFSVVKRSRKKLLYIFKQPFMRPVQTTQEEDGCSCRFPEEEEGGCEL
Protocol: (§2) Following 48 h of incubation with or without CD3, human and cynomolgus PBMC were harvested, pooled, recounted and diluted in FACS buffer (PBS+0.5% BSA, 0.05% NaN₃) to a concentration of 5×10⁶ cells/mL. 50 μL (0.25×10⁶ cells) of cell solution was added to a 96-well FACS staining plate (Falcon #351190). Following 10 min of Fc-blocking in RT using Beriglobin (hIgG, 200 μg/mL), cells were washed in FACS buffer and then incubated for 1 h in 4° C. with 100 μL of the biotinylated ALG.APV-210 or negative control. The antibodies were added in a serial dilution starting either at 5 μg/mL titrating down in a 12 step ⅓ dilution down to 0.0003 μg/mL (exp 1) or 1 μg/mL titrating down in a 12 step ½ dilution down to 0.0005 μg/mL (exp 2). […] Cells were analysed for ALG.APV-210 binding using flow cytometry by gating on viable, single cells expressing CD3 and CD8. MFI values (FMO subtracted) from 2 independent experiments as well as normalized pooled data from 2 experiments and EC₅₀-values were determined and plotted using GraphPad Prism 7, non-linear regression log (agonist) vs. normalized response—variable slope, n=6 donors/group.

[4] = molecular target: T1, human 5T4 on cells; assay: flow cytometry, HT-29 cells, streptavidin-PE, normalized MFI of 2 pooled experiments
Protocol: as §1

[5] = molecular target: T3, human CD137 on cells (human, UniProt Q07011 24-255); assay: flow cytometry, CD8 T cells gated from CD3-stimulated human PBMC, biotinylated antibody + streptavidin-APC, exp 1, n=3 donors
T3 construct: also called 4-1BB; TNFRSF9 (CHO-K1/human CD137 cells)
T3 sequence (Q07011 24-255 limits assumed): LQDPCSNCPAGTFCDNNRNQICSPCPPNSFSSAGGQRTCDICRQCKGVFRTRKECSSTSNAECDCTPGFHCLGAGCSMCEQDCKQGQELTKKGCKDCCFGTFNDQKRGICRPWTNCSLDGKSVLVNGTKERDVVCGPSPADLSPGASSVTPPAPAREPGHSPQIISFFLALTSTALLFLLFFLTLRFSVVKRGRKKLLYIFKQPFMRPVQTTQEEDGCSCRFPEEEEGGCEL
Protocol: as §2, with “control.” for “control. The antibodies were added in a serial dilution starting either at 5 μg/mL titrating down in a 12 step ⅓ dilution down to 0.0003 μg/mL (exp 1) or 1 μg/mL titrating down in a 12 step ½ dilution down to 0.0005 μg/mL (exp 2).”
(§3) In ELISA tests, the binding of biotinylated ALG.APV-210 to CD137 was similar to that of the non-biotinylated ALG.APV-210 (0.6 nM vs. 0.7 nM). The binding (EC₅₀) of the biotinylated ALG.APV-210 to its immunomodulatory target CD137 when expressed on activated primary human and cynomolgus CD8 T cells from CD3 stimulated PBMC was assessed and compared between the two species as well as to unstimulated cells. […]

[6] = molecular target: T2, cynomolgus CD137 on cells; assay: flow cytometry, CD8 T cells gated from CD3-stimulated cynomolgus PBMC, biotinylated antibody + streptavidin-APC, exp 2, n=3 donors
Protocol: as §2, with “control.” for “control. The antibodies were added in a serial dilution starting either at 5 μg/mL titrating down in a 12 step ⅓ dilution down to 0.0003 μg/mL (exp 1) or 1 μg/mL titrating down in a 12 step ½ dilution down to 0.0005 μg/mL (exp 2).”
as §3

Row | EC50 (nM), IFNγ release of human CD8+ T cells with HCT116 cells [1] [nM] | Binder | EC50 [2] [nM] | EC50 [3] [nM] | EC50 [4] [nM] | EC50 (read off the curve) [5] [nM] | EC50 (read off the curve) [6] [nM]
1 | 0.17 | B1 |  |  |  |  | 
2 |  | B2 | 8 | 0.236 | 12 | ~0.3 | ~0.2
